Results from PMC6694677.
Blank lines part the entries; values can stand above or below the substance they belong to.

How the values were obtained:
[1] = biological target: CD3 on Jurkat cells (human (endogenous in Jurkat)) (UniProt P07766); experiment: FACS; settings: bispecific antibody
[2] = biological target: HER2 on SK-BR-3 cells (human (endogenous in SK-BR-3)) (UniProt P04626); experiment: FACS; settings: bispecific antibody
[3] = biological target: recombinant CD3 antigen (ectodomain of hCD3) (human) (UniProt P07766); experiment: SPR; ProteOn XPR36, GLC chip; CD3 antigen immobilised by amine coupling at 1000 RU; antibodies (M802 0 to 50 nM) injected; Two state interaction model; KD = Kd/Ka
recombinant CD3 antigen (ectodomain of hCD3) (human), sequence (P07766 23-126): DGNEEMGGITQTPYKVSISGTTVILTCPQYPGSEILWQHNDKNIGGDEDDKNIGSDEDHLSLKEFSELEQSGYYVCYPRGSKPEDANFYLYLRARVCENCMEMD

[4] = biological target: recombinant HER2 antigen (ectodomain of hHER2) (Homo sapiens) (UniProt P04626); experiment: SPR; ProteOn XPR36, GLC chip; HER2 antigen immobilised by amine coupling at 1000 RU; antibodies (M802 0 to 50 nM) injected; 1:1 L interaction model; KD = Kd/Ka
[5] = biological target: HER2 on SK-BR-3 cells (human (endogenous in SK-BR-3)) (UniProt P04626); experiment: flow cytometry on cells; SK-BR-3 or Jurkat cells with serially diluted antibody, 1 h at room temperature; PE-conjugated anti-human IgG Fc as secondary antibody
[6] = biological target: recombinant HER2 antigen (ectodomain of hHER2) (Homo sapiens) (UniProt P04626); experiment: SPR; ProteOn XPR36; HER2 and CD3 antigens amine-coupled on a GLC chip at 1000 RU; M802 (0 to 50 nM) and other antibodies injected; 1:1 L interaction model for HER2, two state interaction model for CD3
[7] = biological target: recombinant CD3 antigen (ectodomain of hCD3) (human) (UniProt P07766); experiment: as above

CD3 on Jurkat cells (human (endogenous in Jurkat)), sequence (P07766 23-207, chain 1 of 3): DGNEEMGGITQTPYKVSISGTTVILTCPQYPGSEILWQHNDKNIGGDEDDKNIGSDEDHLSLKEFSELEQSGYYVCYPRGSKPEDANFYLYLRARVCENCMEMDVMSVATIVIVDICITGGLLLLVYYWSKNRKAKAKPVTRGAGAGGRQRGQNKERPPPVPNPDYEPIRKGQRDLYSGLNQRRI
CD3 on Jurkat cells (human (endogenous in Jurkat)), sequence (P04234 22-171, chain 2 of 3, further chain): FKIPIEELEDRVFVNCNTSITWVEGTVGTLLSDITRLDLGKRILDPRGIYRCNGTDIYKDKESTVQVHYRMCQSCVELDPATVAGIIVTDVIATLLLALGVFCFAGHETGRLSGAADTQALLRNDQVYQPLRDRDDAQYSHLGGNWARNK
CD3 on Jurkat cells (human (endogenous in Jurkat)), sequence (P09693 23-182, chain 3 of 3, further chain): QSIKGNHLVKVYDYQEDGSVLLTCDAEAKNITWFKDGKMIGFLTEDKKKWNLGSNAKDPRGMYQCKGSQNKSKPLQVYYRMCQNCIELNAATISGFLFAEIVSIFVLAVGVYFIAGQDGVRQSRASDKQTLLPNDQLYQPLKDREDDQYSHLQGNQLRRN

Kd [1]: 187 nM | Kd [2]: 11.7 nM
Substance: M802, anti-HER2/CD3 bispecific antibody (MSBODY format: monovalent unit against HER2 and single chain unit against CD3) (from UniProt P01857)

koff [3]: 0.0245 s⁻¹ | kon [3]: 345000 M⁻¹ s⁻¹ | koff [4]: 0.000248 s⁻¹ | kon [4]: 429000 M⁻¹ s⁻¹
Substance: M802, anti-HER2/CD3 bispecific antibody (monovalent unit against HER2 and single chain unit against CD3)

fold weaker affinity than Herceptin [5]: 3 fold | Kd [6]: 0.578 nM | Kd [7]: 71.2 nM
Substance: M802, anti-HER2/CD3 bispecific antibody (MSBODY format: monovalent unit against HER2 and single chain unit against CD3)
